The source of these data is US20110250613A1, “Arrayed Multiple Ubiquitin Binding Domains as Linkage-specific Polyubiquitin Affinity Reagents” (THE JOHNS HOPKINS UNIVERSITY, priority 2009, published 2011).

Assay [1] concerns the target K63-linked tetraubiquitin (UniProt P0CG48). Description: fluorescence anisotropy. (In general: Polarisation of emitted light reports the rotation of a fluorescent probe.)
Assay [2] concerns the target K48-linked tetraubiquitin (UniProt P0CG48). The assay is described as follows: fluorescence anisotropy.
For assay [3], the target named is K48-linked diubiquitin (UniProt P0CG48). The assay is described as follows: fluorescence anisotropy.
The target of assay [4] is K63-linked diubiquitin (UniProt P0CG48). The assay is described as follows: fluorescence anisotropy.
Assay [5] addresses K63-linked tetraubiquitin (UniProt P0CG48). The assay is described as follows: SPR, GST-UBA captured on anti-GST antibody.
For assay [6], the target named is K48-linked tetraubiquitin (UniProt P0CG48). The assay is described as follows: SPR, GST-UBA captured on anti-GST antibody. For orientation: In SPR one partner is held on a chip, and binding of the other changes the refractive index at the surface.
The target in assay [7] is K48-linked diubiquitin (UniProt P0CG48). Description: SPR, GST-UBA captured on anti-GST antibody.
Assay [8] addresses K63-linked diubiquitin (UniProt P0CG48). The assay is described as follows: SPR, GST-UBA captured on anti-GST antibody.
Assay [9] addresses K48-linked diubiquitin (UniProt P0CG48). The assay is described as follows: fluorescence anisotropy. This is another data set of the same source.
The target of assay [10] is K63-linked tetraubiquitin (UniProt P0CG48). Description: fluorescence anisotropy. This is another data set of the same source.
Assay [11] has as its target K48-linked tetraubiquitin (UniProt P0CG48). Description: fluorescence anisotropy. This is another data set of the same source.
In assay [12] the target is K63-linked tetraubiquitin (UniProt P0CG48). The assay is described as follows: fluorescence anisotropy, solution state.
Assay [13] concerns the target K63-linked diubiquitin (UniProt P0CG48). The assay is described as follows: fluorescence anisotropy; Rap80 tUIM with 9-alanine linker.
For assay [14] the target is unchanged. The assay is described as follows: ITC, single-site model.
The target is the same in assay [15]. The assay is described as follows: ITC, single-site model; unit mM, evidently µM.
Assay [16] has the same target. The assay is described as follows: fluorescence anisotropy. This is another data set of the same source.
The target of assay [17] is K48-linked diubiquitin (UniProt P0CG48). The assay is described as follows: fluorescence anisotropy, against K63-Ub2.
Assay [18] has as its target K48-linked tetraubiquitin (UniProt P0CG48). Description: fluorescence anisotropy, against K63-Ub4.
The target is the same in assay [19]. The assay is described as follows: fluorescence anisotropy, ratio of Kd for Ub4 chains.
The target in assay [20] is K63-linked diubiquitin (UniProt P0CG48). The assay is described as follows: fluorescence anisotropy, divalent-divalent complex fit, non-avid mode.
For assay [21] the target is unchanged. The assay is described as follows: fluorescence anisotropy to high K63-Ub2 concentrations, divalent-divalent complex fit, avid mode.
The target is the same in assay [22]. The assay is described as follows: fluorescence anisotropy competition against the fluorescent Rap80 tUIM peptide at saturating K63-Ub2.
The target of assay [23] is K48-linked tetraubiquitin (UniProt P0CG48). The assay is described as follows: fluorescence anisotropy, ratio of Kd.
Assay [24] has as its target K63-linked diubiquitin (UniProt P0CG48). The assay is described as follows: fluorescence anisotropy, alanine linker series.
Assay [25] addresses K63-linked tetraubiquitin (UniProt P0CG48). Description: SPR Kd of GST-UBA1 against fluorescence anisotropy Kd of the free domain.
Assay [26] shares this target. The assay is described as follows: SPR, captured on anti-GST antibody.
For assay [27] the target is unchanged. Description: fluorescence anisotropy competition with fluorescent Vps27 7aa linker peptide.
Assay [28] addresses K48-linked tetraubiquitin (UniProt P0CG48). The assay is described as above.

pKd, pKi: −log10 of the molar value.

As to ataxin-3 Rap80 linker (peptide), the negative-log Kd (pKd) (usually −log10 of the Kd, conventionally taken in molar units) in assay [1] was 4.96; in [2], 5.11; in assay [3], 3.80; in assay [4], 4.22.

Turning to “GST-Ede1 UBA (from UniProt P34216 1336-1381)”, the pKd in assay [5] was 5.22; in [6], 4.60; in assay [7], 3.96; in assay [8], 4.32.

Substance “Rap80 UIM1 peptide, fluorescein-labelled” had a negative-log Kd (pKd) in [9] of 3.55.

As to “fluorescein-labeled hHR23A-UBA1 domain (from UniProt P54725 159-201)”, the negative-log Kd (pKd) in assay [10] is 4.52; in assay [11], 5.05.

Take “Rap80 (1-233), fluorescein-labelled (from UniProt Q96RL1 1-233)”: the values for the negative-log Kd (pKd) in assay [10] and in assay [11] were 5.47 and 4.64, respectively. Also, the fold preference over K48-Ub4 in assay [12] was 7 fold.

Substance Rap80_nolinker (peptide) showed a negative logarithm of the Kd (pKd) in [4] of 4.33.

Regarding Rap80 tUIM with 9-alanine linker, the pKd in [13] is 4.04.

For the substance “Ubc1 UBA, His-tagged, Alexa-fluor 546 labelled”, the negative-log Kd (pKd) was 3.77 in [10] and 4.43 in assay [11].

Turning to “Rap80 UIM2 peptide, fluorescein-labelled”, the pKd in [9] is 3.70.

With “Rap80 tUIM peptide with a C-terminal 3-amino acid extension (DWS)”, the n (sites) in [14] came out at 0.97 sites. The pKd in assay [15] was 1.75.

For Rap80_S101A (peptide), the pKd in [3] is 3.82; in assay [4], 4.96.

With “Ede1_rhodamine (from UniProt P34216 1338-1381)”, the negative logarithm of the Kd (pKd) in assay [10] was 4.27; in [11], 4.51; in assay [9], 4.07; in [16], 3.92. The fold preference for K48-polyUb in assay [17] and in assay [18] was under 2 fold in each case.

In the case of Rap80 ataxin linker (peptide), the negative logarithm of the Kd (pKd) is 4.70 in assay [1], 5.47 in [2], 3.84 in [3] and 3.94 in [4]. Further, the fold K48 preference in assay [19] was found to be 6 fold.

On to Rap80_DLKAAIQ (peptide), for which the pKd in [3] was 3.89; in assay [4] it was 5.00.

“Rap80 tUIM peptide with no 6xHis-tag and fluorescein on a C-terminal lysine side chain (expressed protein ligation)” showed a negative-log Kd (pKd) in assay [16] of 4.72.

Regarding “Rap80 tandem UIMs (wt) peptide, His6-tagged, fluorescein-labelled”, the pKd was 5.42 in assay [10]; 4.82 in [11]; 3.00 in assay [20]; 5.44 in [1]; 4.85 in assay [2]; 4.67 in assay [4]. The substance also showed a pKd in assay [21] of 4.66.

Take unlabeled Rap80 tUIM peptide: the pKi – broadly, the negative decadic logarithm of the Ki, by convention in mol/L – in [22] is 4.62.

On to Ataxin3 (wt) tandem UIM peptide, for which the fold preference over K63-Ub4 in assay [23] amounted to 5 fold. The pKd in assay [1] is 4.82; in [2], 5.48; in assay [3] it was 4.00; in assay [4], 4.04.

With Rap80_ARLEEKV (peptide), the pKd in assay [3] is 3.64; in assay [4], 4.77.

“GST-Ubc1 UBA (from UniProt P21734 167-215)” had a pKd in assay [7] of 3.34.

Regarding “Rap80 tUIM with 9-alanine linker (peptide)”, the fold weaker than 7 A in assay [24] was over 25 fold.

As for “Dsk2 UBA, fluorescein-labelled (from UniProt P48510 327-371)”, the pKd in assay [10] was 5.66; in [11] it was 5.85. In addition, the fold difference in Kd for K63- and K48-Ub4 in assay [23] is under 2 fold.

Take GST-hHR23A UBA1: the negative logarithm of the Kd (pKd) in assay [5] was 5.33; in assay [6], 4.89; in assay [7], 4.44; in assay [8], 4.59. The fold tighter than the free domain in assay [25] is over 6 fold.

In the case of “GST-fmm (functionally monomeric mixture; GST-His/GST-Ede1 heterodimer) (from UniProt P34216 1336-1381)”, the negative logarithm of the Kd (pKd) in [26] is 4.64.

As to Rap80_S101E (peptide), the pKd is 3.77 in [3] and 4.80 in assay [4].

For the substance Vps27 (wt) tandem UIM peptide, the pKd was 3.68 in assay [3], 4.17 in [4], 4.54 in assay [27] and 4.51 in assay [28].

Turning to Ddi1 UBA, fluorescein-labelled, the pKd is 4.04 in assay [10] and 4.30 in assay [11]. Further, the fold difference in Kd for K63- and K48-Ub4 in assay [23] was under 2 fold.

For “GST-DRM2 UBA1 (from UniProt Q9M548 106-154)”, the figures for the pKd in assay [7] and in assay [8] were 3.85 and 4.05, respectively.
